Measurements: US6670167B1, “Catalytic domain of the human effector cell cycle checkpoint protein kinase materials and methods for identification of inhibitors thereof” (Agouron Pharmaceuticals, Inc., priority 1999, dated 2003)
Where no end group is shown, it is not given here.

The substances below were run against T1, Chk1 kinase (Homo sapiens, UniProt O14757) (assay: Peptide substrates tested for activity as Chk1 substrates). Conditions: Syntide 2 = 100%.
T1 construct: 2 (KH289); made in house; host or cells: baculovirus (Bac-to-Bac, pFastBac-Nde) in Hi-5 insect cells
T1 sequence (O14757 1-289): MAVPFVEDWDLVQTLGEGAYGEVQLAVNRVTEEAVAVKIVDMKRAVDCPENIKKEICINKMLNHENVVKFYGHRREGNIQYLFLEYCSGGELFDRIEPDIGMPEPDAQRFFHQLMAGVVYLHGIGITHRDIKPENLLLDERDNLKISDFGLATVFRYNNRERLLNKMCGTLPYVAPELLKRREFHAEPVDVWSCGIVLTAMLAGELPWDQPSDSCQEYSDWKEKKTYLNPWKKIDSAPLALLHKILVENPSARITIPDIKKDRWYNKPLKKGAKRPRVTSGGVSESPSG
Type: biochemical
Description: The enzymatic activity of a kinase is measured by its ability to catalyze the transfer of a phosphate residue from a nucleoside triphosphate to an amino acid side chain in a selected protein target. The conversion of ATP to ADP generally accompanies the catalytic reaction. Herein, a synthetic substrate peptide, Syntide-2, having amino acid sequence PLARTLSVAGLPGKK (SEQ ID NO. 11) was utilized. The production of ADP from ATP that accompanies phosphoryl transfer to the substrate was coupled to oxidation of NADH using phosphoenolpyruvate (PEP) through the actions of pyruvate kinase (PK) and lactic dehydrogenase (LDH). The oxidation of NADH was monitored by following the decrease of absorbance at 340 nm (e340=6.22 cm−1 mM−1) using a HP8452 spectrophotometer. Typical reaction solutions contained: 4 mM PEP, 0.15 mM NADH, 28 units of LDH/mL, 16 units of PK/mL, 3 mM DTT, 0.125 mM Syntide-2, 0.15 mM ATP and 25 mM MgCl2 in 50 mM TRIS pH 7.5; 400 mM NaCl. Assays were initiated with 10 nM of kinase domain of Chk1, KH289. Ki values were determined by measuring initial enzyme activity in the presence of varying concentrations of inhibitors. The data were analyzed using Enzyme Kinetic and Kaleidagraph software.
The following substrates were tested for peptide content and activity:
As described in detail below, an aspect of the invention involves a nonradioactive ELISA based assay suitable for high throughput screening (HTS). The development of the ELISA based CHK1 kinase HTS assay was first initiated with a monoclonal anti-phosphoserine antibody called Clone PSR-45, supplied by Sigma. New Chk peptide substrates, analogues of Syntide2, were synthesized to validate this assay. Biotin-Syntide-2 (SEQ ID NO. 12), and N-terminus acetylated Syntide-2 (SEQ ID NO. 13) and the expected peptide products after CHK phosphorylation, serine phosphorylated Syntide 2 (SEQ ID NO. 15), and serine phosphorylated biotin-Syntide 2 (SEQ ID NO. 16) were synthesized for assay development. […]

| Substance | Activity (peptide substrate) [%] |
| --- | --- |
| Ac-PLARTLSVAGLPG-AGAGAGAK (Ac-PLARTLSVAGLPGAGAGAGAK) [Syntide 4, N-terminus acetylated analogue of Syntide 2] | 72 |
| KAGAG-PLARTLSVAGLPG-Biotin-K [Syntide 3] | 67 |
| PLARTLSVAGLPGKK [Syntide 2, synthetic substrate peptide, reference compound] | 100 |
